The text below walks through data of patent publication US20250270308A1 (UCB, published 2025).

For the test, the target named is T1, human TNFα in complex with compound (1) (human, UniProt P01375 77-233).
T1 construct: also called human TNFα + compound (1); compound-distorted human TNFα
The experiment in a line: size exclusion HPLC.

T1 sequence (P01375 77-233 limits assumed, one chain of several): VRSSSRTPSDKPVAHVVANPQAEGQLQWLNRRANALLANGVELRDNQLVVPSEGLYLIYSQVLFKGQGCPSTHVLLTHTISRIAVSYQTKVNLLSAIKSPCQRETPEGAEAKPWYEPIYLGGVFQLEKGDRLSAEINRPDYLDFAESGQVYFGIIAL

B1: CA185_01979 mouse Fab (no hinge) (Fab, V domains shown)
VH: EVHLVESGPGLVKPSQSLSLTCSVTGYSITNSYWDWIRKFPGNKMEWMGYINYSGSTGYNPSLKSRISISRDTSNNQFFLQLNSITTEDTATYYCARGTYGYNAYHFDYWGRGVMVTVSS
VL: DIQMTQSPASLSASLEEIVTITCQASQDIGNWLSWYQQKPGKSPHLLIYGTTSLADGVPSRFSGSRSGTQYSLKISGLQVADIGIYVCLQAYSTPFTFGSGTKLEIKR
notes: also called CA185_01979 mFab; CA185-01979 Fab fragment
On to B1, for which the stoichiometry stood at 1 Fab per TNFα trimer.
